Positions count from the first letter of the chain named.

The record followed here is patent publication US20210095007A1 (MIT, published 2021).

To fix the notation:
B1: 2G4.6 (antibody, V domains shown)
VH: EVQLLESGGGLVQPGGSLRLSCVASGFTFSNYWMNWVRQAPGKGLEWLAEIRLKSNNYATHYSASVKGRFTISRDKSKSTLYLQMNTLQAEDSAIYYCTRGNGNYRAMDYWGQGTLVTVSS
VL: DIVMTQSPSSLSASVGDRVTITCRASENIYSSLAWYQQKPGKSPQLLVYSATILADGVPSRFSGSGSGTQYTLTISSLQPEDFATYYCQHFWGTPYTFGGGTKVEIK
B2: 13C6.1 (antibody, V domains shown)
VH: QLTLKESGPTLVKPTQTLSLTCTFSGFSLSTSGVGVGWFRQPPGKALEWLALIWWDDDKYYSPSLKSRLTITKDTSKNQVVLTMTNMDPVDTATYYCARRDPFGYDNAMGYWGQGTTVTVSS
VL: DIVMTQSPSFLSASVGDRVTITCKASQNVGTAVAWYQQKPGKAPKLLIYSASNRYSGVPSRFSGSGSGTDFTLTISSLQPEDFATYFCQQYSSYPLTFGGGTKLEIK
B3: 4G7.9 (antibody, V domains shown)
VH: QVQLVQSGAEVKKPGSSVKVSCKASGSSFTGFSMNWVRQAPGQSLEWIGNIDTYYGGTTYNGKFKGRVTLTVDKSTSTAYMELSSLRSEDTAVYYCARSAYYGSTFAYWGQGTLVTVSS
VL: DIQMTQSPSSLSASVGDRVTITCRASENIYSYLAWYQQKPGKAPKLLVYNAKTLIEGVPSRFSGSGSGTDFTFTISSLQPEDIATYYCQHHFGTPFTFGQGTKVEIK
B4: 13C6 wild type (parent mouse monoclonal antibody 13C6) (antibody, V domains shown)
VH: QLTLKESGPGILKPSQTLSLTCSLSGFSLSTSGVGVGWFRQPSGKGLEWLALIWWDDDKYYNPSLKSQLSISKDFSRNQVFLKISNVDIADTATYYCARRDPFGYDNAMGYWGQGTSVTVSS
VL: DIVMTQSQKFMSTSVGDRVSLTCKASQNVGTAVAWYQQKPGQSPKLLIYSASNRYTGVPDRFTGSGSGTDFTLTISNMQSEDLADYFCQQYSSYPLTFGAGTKLELR
B5: 4G7 wild type (parent mouse monoclonal antibody 4G7) (antibody, V domains shown)
VH: EVQLQQSGPELEMPGASVKISCKASGSSFTGFSMNWVKQSNGKSLEWIGNIDTYYGGTTYNQKFKGKATLTVDKSSSTAYMQLKSLTSEDSAVYYCARSAYYGSTFAYWGQGTLVTVSS
VL: DIVMTQSPASLSASVGETVTITCRASENIYSYLAWYQQKQGKSPQLLVYNAKTLIEGVPSRFSGSGSGTQFSLKINSLQPEDFGSYFCQHHFGTPFTFGSGTELEIK
B6: 2G4.3 (antibody, V domains shown)
VH: B1 VH with A49G, E50F
VL: B1 VL
B7: 2G4 wild type (parent mouse monoclonal antibody 2G4) (antibody, V domains shown)
VH: EVQLQQSGGGLMQPGGSMKLSCVASGFTFSNYWMNWVRQSPEKGLEWVAEIRLKSNNYATHYAESVKGRFTISRDDSKRSVYLQMNTLRAEDTGIYYCTRGNGNYRAMDYWGQGTSVTVSS
VL: DIVMTQSPASLSVSVGETVSITCRASENIYSSLAWYQQKQGKSPQLLVYSATILADGVPSRFSGSGSGTQYSLKINSLQSEDFGTYYCQHFWGTPYTFGGGTKLEIK
B8: 4G7.10 (antibody, V domains shown)
VH: B3 VH
VL: B3 VL with A43S, Y87F
B9: 4G7.12 (antibody, V domains shown)
VH: B3 VH
VL: B3 VL with Q3V, A43S, K52V, D70Q, T72S, F73L, Y87F, Q100S
B10: 4G7.11 (antibody, V domains shown)
VH: B3 VH
VL: B3 VL with Q3V, A43S, D70Q, T72S, F73L, Y87F, Q100S
B11: 4G7.2 (antibody, V domains shown)
VH: B3 VH with S44G, I48M, L70I, V72A
VL: B3 VL with A43S, Y87F
B12: 4G7.1 (antibody, V domains shown)
VH: B3 VH with S44G, I48M, L70I, V72A
VL: B3 VL
B13: 4G7.3 (antibody, V domains shown)
VH: B3 VH with S44G, I48M, L70I, V72A
VL: B3 VL with Q3V, A43S, D70Q, T72S, F73L, Y87F, Q100S

The first assay concerns the target T1, Ebola virus glycoprotein on Ebola virus Mayinga 1976 strain (Zaire Ebola virus, Mayinga 1976 strain, UniProt Q05320 33-676).
T1 sequence: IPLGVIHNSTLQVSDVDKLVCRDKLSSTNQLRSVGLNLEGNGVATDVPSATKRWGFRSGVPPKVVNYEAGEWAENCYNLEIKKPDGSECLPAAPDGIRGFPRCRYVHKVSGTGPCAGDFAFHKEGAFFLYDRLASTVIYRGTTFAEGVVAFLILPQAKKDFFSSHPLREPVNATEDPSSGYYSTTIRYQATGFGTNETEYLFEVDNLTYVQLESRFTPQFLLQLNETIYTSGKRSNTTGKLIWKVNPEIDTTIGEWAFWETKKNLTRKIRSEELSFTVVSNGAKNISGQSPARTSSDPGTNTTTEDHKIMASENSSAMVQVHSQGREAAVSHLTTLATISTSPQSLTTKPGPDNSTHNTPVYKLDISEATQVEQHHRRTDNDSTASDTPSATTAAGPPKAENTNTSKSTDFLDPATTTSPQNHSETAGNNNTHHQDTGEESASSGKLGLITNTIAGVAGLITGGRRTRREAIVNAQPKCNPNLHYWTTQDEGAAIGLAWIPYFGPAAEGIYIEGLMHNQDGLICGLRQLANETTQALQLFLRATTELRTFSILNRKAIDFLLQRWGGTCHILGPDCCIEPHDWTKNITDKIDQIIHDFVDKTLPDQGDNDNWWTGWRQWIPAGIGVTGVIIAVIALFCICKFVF
As to the kind of experiment: cell-based or functional assay.
In the case of B1, the “plaque reduction neutralization titre (Vero E6 cells, 200 pfu)” value (“plaque reduction neutralization titre” below) was found to be 2 µg/mL.
Turning to B2, the “plaque reduction neutralization titre” value was above 50 µg/mL.
In the case of B3, the “plaque reduction neutralization titre” value was found to be 1 µg/mL.

The target in a further assay is Ebola virus glycoprotein on Ebola virus Makona 2014 strain (Zaire Ebola virus, Makona 2014 strain). Put plainly: cell-based or functional assay.
Consider B1, for which the “plaque reduction neutralization titre” value turned out to be 2 µg/mL.
With B2, the “plaque reduction neutralization titre” value is above 50 µg/mL.
Consider B3, for which the “plaque reduction neutralization titre” value is 1 µg/mL.

In a further assay the target is T2, Ebola virus glycoprotein on Ebola virus Kikwit 1995 strain (Zaire Ebola virus, Kikwit 1995 strain, UniProt P87666 33-676).
T2 sequence: T1 sequence with V278A, G282R, S345P, L346P, S390P, P398L, S408G, F411L, T467A, I512T
Put plainly: cell-based or functional assay.
Turning to B1, the “plaque reduction neutralization titre” value was determined as 4 µg/mL.
The same measure, in the same setting: then B2, with above 50 µg/mL; and B3, with 1 µg/mL.

In a further assay the target is T3, Ebola GPdTM (IBT Bioservices) (Ebola virus, UniProt Q05320 33-650).
T3 sequence: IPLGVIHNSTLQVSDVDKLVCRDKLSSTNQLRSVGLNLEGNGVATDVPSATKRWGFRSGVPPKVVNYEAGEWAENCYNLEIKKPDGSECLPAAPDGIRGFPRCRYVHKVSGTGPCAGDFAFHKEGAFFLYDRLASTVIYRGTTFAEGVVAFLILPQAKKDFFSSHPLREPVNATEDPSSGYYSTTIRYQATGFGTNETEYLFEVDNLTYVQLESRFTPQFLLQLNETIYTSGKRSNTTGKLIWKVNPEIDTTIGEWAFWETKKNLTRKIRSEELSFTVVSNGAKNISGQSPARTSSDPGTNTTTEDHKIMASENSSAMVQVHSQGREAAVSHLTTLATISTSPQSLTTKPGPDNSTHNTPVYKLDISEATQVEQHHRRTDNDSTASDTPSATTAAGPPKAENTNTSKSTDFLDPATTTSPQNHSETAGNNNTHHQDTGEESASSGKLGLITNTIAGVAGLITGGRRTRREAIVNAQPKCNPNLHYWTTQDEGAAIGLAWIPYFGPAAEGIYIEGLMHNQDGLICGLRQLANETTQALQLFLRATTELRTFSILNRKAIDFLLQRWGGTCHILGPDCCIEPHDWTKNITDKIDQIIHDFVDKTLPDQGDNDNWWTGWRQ
Put plainly: ELISA, GPdTM coated at 1 µg/mL, anti-human IgG Fc-HRP detection. (An ELISA detects its analyte on a solid surface through an enzyme-linked reagent.)
Broadly, the EC50 is the concentration giving half of the maximal effect. Low values mean greater potency, high ones weaker potency. B4 had a 50% effective concentration (EC50) of 0.0747 nM. That is a picomolar value.
On to B5, for which the EC50 came out at 0.0725 nM. This EC50 and that of the molecule before are within 1.5-fold of each other.
In turn, B6 gave an EC50 of 0.129 nM.
Molecule B1 came in with an EC50 of 0.109 nM.
On the same count and under the same terms, to B2 belongs 0.136 nM; to B7, 0.154 nM; to B8, 0.12 nM.
On to B9, for which the EC50 is 0.0888 nM.
B10 returned an EC50 of 0.145 nM.
B11 showed an EC50 of 0.0952 nM.
Take B12: the EC50 was 0.182 nM.
On the same count and under the same terms, to B13 belongs 0.176 nM; to B3, 0.0997 nM.
